We go through two molecules from patent publication US20050064420A1, “Methods for identifying, isolating, and controlling the growth of estrogen-responsive cells” (Dana-Farber Cancer Institute, Inc., priority 2001, published 2005).

Assay [1] concerns estrogen receptor expressing human breast cancer cell lines. It counts as cell-based.
Description: Profiles for untreated (filled) and estrogen treated cells (unfilled) infected with the Ad-25ERE-GFP adenovirus are shown.
To assay estrogen responsiveness, cells were cultured in estrogen-free medium (phenol red-free RPMI1640 or DMEM/F12 medium (Life Technologies, Rockville, Md.) supplemented with charcoal/dextran treated fetal bovine serum (cd FBS; 5%) (Hyclone, Logan, Utah)) for 7 days. The cells were tested in fresh estrogen-free medium or fresh estrogen-free medium supplemented with 10 nM estradiol or 10 μM 4-hydroxy-tamoxifen. Cells were collected after 16-24 hours of hormone treatment.
For fluorescence microscopy analysis breast cancer cell lines were infected with Ad-25ERE-GFP virus at a MOI (multiplicity of infection) of ˜100 and treated with hormones as described above.
By infecting mammary epithelial cells with the Ad-25ERE-GFP adenovirus, it was possible to isolate ER+ estrogen responsive cells based on GFP expression. […] Ad-25ERE-GFP was then used to infect various estrogen receptor expressing human breast cancer cell lines in the presence of estrogen or tamoxifen or in the absence of hormone (FIG. 1B).
The subject of assay [2] is ER- breast cancer cell line BT549. As to the kind of experiment: Colony assay after transfection with lipocalin 2 expression vector (pCEP4-lipocalin-HA), hygromycin selection. It counts as cell-based, human. To be noted: lipocalin 2 expression vs control vector pCEP4, 2 weeks hygromycin selection. From the text:
(§1) FIG. 3D is a bar graph showing the numbers of colonies that were obtained after drug (hygromycin) selection (for 2 weeks) of estrogen receptor (“ER”) expressing (“Positive”) MCF-7 and T47D breast cancer cells, estrogen receptor non-expressing (“Negative”) BT549 and MTA-MB-435S breast cancer cells, and estrogen receptor non-expressing (“Negative”) MCF10A normal immortalized mammary epithelial cells that had all been transfected with either a control expression vector (“CEP”) or an expression vector containing cDNA encoding human lipocalin 2 fused at its C-terminus to a double hemagglutinin tag (“LIPO”). The experiments were carried out in T25 tissue culture flasks and the data are expressed as the number of “Colonies/T25 flask”.
(§2) cDNA encoding human lipocalin 2 was amplified by PCR and the isolated PCR product was cloned into the pCEP4 (Invitrogen, Carlsbad, Calif.). The resulting vector (pCEP4-lipocalin-HA) expresses lipocalin-2 with a double hemaglutinnin (HA) tag at its C-terminus. For colony assays, cells were transfected with pCEP4 (control) or pCEP4-lipocalin-HA using FuGene6 (Roche, Indianapolis, Ind.). Transfectants were selected in hygromycin-containing medium for 2 weeks after which colonies were visualized by crystal violet staining. Expression of the lipocalin 2-HA fusion protein was confirmed by western blot analysis (using an antibody specific for HA (Covance, Richmond, Calif.)) of cell lysate and medium from T47D cells transfected with pCEP4 or pCEP4-lipocalin-HA constructs.
(§3) Lipocalin 2 is a secreted protein and could thus be a paracrine factor expressed by NER+ cells that affects the surrounding mammary epithelial cells. In order to determine the effect of lipocalin 2 expression on mammary cell growth, colony growth assays were performed in various ER− and ER+ breast cancer cell lines and in MCF10A cells (FIG. 3D). […] In MCF10A immortalized ER− normal mammary epithelial cells a small increase in the number of colonies (18 vs. 7 colonies) was also observed following lipocalin 2 transfection (FIG. 3D). […]

The subject of assay [3] is MCF10A immortalized ER- normal mammary epithelial cells. The description is as above. It counts as cell-based, human. Conditions: following lipocalin 2 transfection (control vector: 7 colonies), T25 flask.
Description: as §1, §2, §3

For assay [4], the system named is ER+ breast cancer cell lines (MCF-7 and T47D). The assay is described as above. It counts as cell-based, human. To be noted: lipocalin 2 expression vs control vector pCEP4; 2 weeks hygromycin selection; crystal violet staining.
Description: as §1, §2, §3

In assay [5] the test system is MCF10A cells. As to the kind of experiment: Colony assay with lipocalin 2 conditioned medium. It counts as cell-based, human. Conditions: conditioned medium from cells expressing lipocalin 2 vs GFP, seven days of culture. How it is done: (§4) FIG. 4 is a bar graph showing the number of colonies that were obtained after culturing estrogen receptor expressing 747D breast cancer cells and estrogen receptor non-expressing MCF10A normal immortalized mammary epithelial cells with conditioned medium from […] cells recombinantly expressing either GFP (“GEP”) or lipocalin 2 (“LIPO”). The experiments were carried out in the wells of 6-well tissue culture plates. Data, which are expressed as “Colonies/well”, from experiments carried out in medium supplemented with 5% fetal bovine serum (“5% FBS”) or 0.2% fetal bovine serum (“0.2% FBS”) are shown.
(§5) For experiments to test for cell growth regulatory activity in secreted lipocalin 2, conditioned medium was generated by infecting COS7 cells with replication-defective adenoviruses expressing either GFP or lipocalin 2. Filtered medium collected 3-4 days after infection was applied to T47 or MCF10A cells. Colonies were visualized by crystal violet staining after seven days of culture.
(§6) Lipocalin 2 is a secreted protein and could thus be a paracrine factor expressed by NER+ cells that affects the surrounding mammary epithelial cells. In order to determine the effect of lipocalin 2 expression on mammary cell growth, colony growth assays were performed in various ER− and ER+ breast cancer cell lines and in MCF10A cells (FIG. 3D). […]

Assay [6] relates to T47D cells. Description: Colony assay with lipocalin 2 conditioned medium. It counts as cell-based, human. To be noted: conditioned medium from cells expressing lipocalin 2 vs GFP, seven days of culture. How it is done:
as §4, §5, §6

Turning to `C[C@]12CC[C@@H]3c4ccc(O)cc4CC[C@H]3[C@@H]1CC[C@@H]2O` [estrogen, estradiol], the GFP expression result in assay [1] is “high GFP expression”.

B1: lipocalin 2: Secreted human protein; expressed from pCEP4-lipocalin-HA with C-terminal double hemagglutinin tag, or supplied in conditioned medium (protein, UniProt P80188 21-198, looked up)
Neutrophil …: QDSTSDLIPAPPLSKVPLQQNFQDNQFQGKWYVVGLAGNAILREDKDPQKMYATIYELKEDKSYNVTSVLFRKKKCDYWIRTFVPGCQPGEFTLGNIKSYPGLTSYLVRVVSTNYNQHAMVFFKKVSQNREYFKITLYGRTKELTSELKENFIRFSKSLGLPENHIVFPVPIDQCIDG
modifications: C-terminal double HA tag
notes: Secreted human protein; expressed from pCEP4-lipocalin-HA with C-terminal double hemagglutinin tag, or supplied in conditioned medium
Take B1: the colony numbers result in assay [2] is on record as “small but significant increase in colony numbers”; in assay [4], “dramatically suppressed colony numbers”. For the same molecule, in assay [3], the number of colonies stood at 18 colonies. Further, the figures for the “growth (colonies) with exogenous lipocalin 2” value in assay [5] and in assay [6] were “enhanced” and “inhibited”, respectively.
